We go through 20 molecules from patent US20250339569A1 (3B PHARMACEUTICALS, published 2025).

Starred links: 1 amine or outer side, 2 acyl side, 3 side chain; linkers in the order of their positions; H or OH if unused. Positions of bridges follow the written chain, without caps; N, C: chain ends. Non-standard residues stand in square brackets, D forms with d. Primed or numbered codes have the meaning given here. No end group written: not given here. *: point of attachment. Aph(SaPr) = 4-amino-L-phenylalanine, ring amine acylated by 3-sulfamoylpropanoic acid, NS(=O)(=O)CCC(=O)Nc1ccc(C[C@H](N[*:1])C(=O)[*:2])cc1; Aph(2Thz) = 4-aminophenylalanine with 1,3-thiazole-2-carbonyl on the ring amine, O=C(Nc1ccc(C[C@H](N[*:1])C(=O)[*:2])cc1)c1nccs1; Aph(iNic) = 4-aminophenylalanine with isonicotinoyl on the ring amine, O=C(Nc1ccc(C[C@H](N[*:1])C(=O)[*:2])cc1)c1ccncc1; Aph(Bz) = 4-aminophenylalanine with benzoyl on the ring amine, O=C(Nc1ccc(C[C@H](N[*:1])C(=O)[*:2])cc1)c1ccccc1; Ttds = 1,13-diamino-4,7,10-trioxatridecan-succinamic acid spacer, NCCCOCCOCCOCCCNC(=O)CCC(=O)*; Phe(3-NHCO(CH2)3SO2NH2) = N[C@@H](Cc1cccc(NC(=O)CCCS(N)(=O)=O)c1)C(=O)O; APAc″ = 2-(4-(amino)piperidin-1-yl)acetic acid, NC1CCN(CC(=O)*)CC1; DOTA = O=C(O)CN1CCN(CC(=O)O)CCN(CC(=O)*)CCN(CC(=O)O)CC1; Pyridine(3,5-bisCH2) = c1ncc(C[*:2])cc1C[*:1]; PPAc = 4-carboxymethyl piperazine linker; mXylylene = c1cc(C[*:1])cc(C[*:2])c1; tBuAla = CC(C)(C)C[C@H](N)C(=O)O; 3Amb = NCc1cccc(C(=O)O)c1; PPAc″ = not defined here; Dab = NCC[C@H](N)C(=O)O; Thp = NC1(C(=O)O)CCOCC1; Cmp = not defined here; Dap = NC[C@H](N)C(=O)O; Rni = not defined here Where only a bound is given, the exact number is not on record here.

Assay [1] deals with T1, Fc-fusion protein of human carbonic anhydrase IX (human, UniProt Q16790 38-414). As to the kind of experiment: SPR, captured hCAIX-Fc; pKD category A: >8.0.
Assay [2] deals with T1, Fc-fusion protein of human carbonic …. As to the kind of experiment: SPR, captured hCAIX-Fc; t1/2 category A: >15.0 min. A general note: Surface plasmon resonance follows binding to a sensor surface in real time, without labels.
Assay [3] has as its target human carbonic anhydrase IX (CAIX) (human, UniProt Q16790 38-459). In words: FACS competition, HT-29 cells, tracer 3BP-2776; pIC50 category A: >8.0. The procedure: (§1) CAIX-expressing human HT-29 colorectal cancer cells (DSMZ, RRID: CVCL_0320) were cultured in McCoys's 5A modified medium (Biochrom, #F1015) including 10% fetal calf serum (FCS), 2 mM L-glutamine, 100 U/ml penicillin and 100 μg/mL streptomycin. Cells were detached with Accutase (Biolegend, #423201) and washed in FACS buffer (PBS including 1% FCS). Cells were diluted in FACS buffer to a final concentration of 500.000 cells per ml. 200 μL of the cell suspension were transferred to a u-shaped non-binding 96-well plate (Greiner) and cells were washed in ice-cold FACS buffer.
(§2) When biotinylated compounds were used an additional incubation step with 1 μg/mL APC-Streptavidin (Miltenyi; #130-106-791) in 50 μL FACS buffer for 30 minutes on ice was performed.
(§3) Cells were washed twice with ice-cold FACS buffer and analyzed in an Attune NxT flow cytometer (Thermo Fisher). Median fluorescence intensities (MFI) of the APC/Cy5-channel were calculated by Attune NxT software.

The target in assay [4] is T1, Fc-fusion protein of human carbonic …. As to the kind of experiment: SPR, captured hCAIX-Fc; t1/2 category D: <=2.0 min. The procedure:
Stock solutions of test compounds were prepared by dissolving each compound in DMSO. DMSO stock solution were diluted 1:1000 in Running Buffer without DMSO. […] SPR binding analyses were performed in Single Cycle Kinetic (SCK) mode at 25° C.
For each test compound, SPR raw data in the form of resonance units (RU) were plotted as sensorgrams using the Biacore™ T200 control software. The signal from the blank sensorgram was subtracted from that of the test compound sensorgram (blank corrected). The blank corrected sensorgram was corrected for baseline drift by subtracting the sensorgram of a SCK run without the test compound (running buffer only). […] Raw data and fit results were imported as text files in IDBS. The pKD value (negative decadic logarithm of dissociation constant) was calculated in the IDBS excel template.

In assay [5] the target is human carbonic anhydrase 9 (CAIX) (human, UniProt Q16790 38-459). In words: FACS competition on HT-29 cells, competitor tracer 3BP-2776; category C = pIC50 6.1-7.0. How it is done: as §1, §2, §3

{DOTA-PPAc″}-YCE[dP]D[Phe(3-NHCO(CH2)3SO2NH2)]LTWSC-NH2 (linker 2-11 via mXylylene; reading uncertain) [3BP-4448] displayed a pKD in assay [1] greater than 8 pkd. In addition, the “t1/2 (half-life of the complex, SPR)” value in assay [2] was greater than 15 min. The molecule further showed a pIC50 in assay [3] greater than 8 pic50. On the same counts, the results for {DOTA-Rni}-YCE[dP]D[Phe(3-NHCO(CH2)3SO2NH2)]LTWSC-NH2 (linker 2-11 via mXylylene; reading uncertain) [3BP-4455] are greater than 8 pkd, greater than 15 min and greater than 8 pic50. On the same counts, the results for {DOTA-PPAc}-ECE[dP]D[Phe(3-NHCO(CH2)3SO2NH2)]LTW[Dap]C-NH2 (lactam 1-10; linker 2-11 via mXylylene) [3BP-4502] are greater than 8 pkd, greater than 15 min and greater than 8 pic50. On to {DOTA-PPAc}-DCE[dP]DWLTW[Dap]C-NH2 (lactam 10-1; linker 2-11 via mXylylene) [3BP-4255], for which the pKD in assay [1] is greater than 8 pkd. Further, the “t1/2 (half-life of the complex, SPR)” value in assay [4] was no more than 2 min.

B1: 3BP-3962 (peptide)
peptide: Ac-VYCE[dP]KW[Thp]EWSC-NH2
modifications: linker 3-12 via mXylylene; lactam 6-9
SMILES: CC(=O)N[C@H](C(=O)N[C@@H](Cc1ccc(O)cc1)C(=O)N[C@H]1CSCc2cccc(c2)CSC[C@@H](C(N)=O)NC(=O)[C@H](CO)NC(=O)[C@H](Cc2c[nH]c3ccccc23)NC(=O)[C@@H]2CCC(=O)NCCCC[C@H](NC(=O)[C@H]3CCCN3C(=O)[C@H](CCC(=O)O)NC1=O)C(=O)N[C@@H](Cc1c[nH]c3ccccc13)C(=O)NC1(CCOCC1)C(=O)N2)C(C)C
In assay [5], B1 showed a pIC50 of 6.1 to 7 pic50.

As to {DOTA-Cmp}-DCE[dP]DWLTW[Dap]C-NH2 (lactam 10-1; linker 2-11 via mXylylene; reading uncertain) [3BP-4259], the pKD in assay [1] is greater than 8 pkd. Also, the “t1/2 (half-life of the complex, SPR)” value in assay [4] was no more than 2 min. On the same counts, the results for {DOTA-APAc″}-CE[dP]DWLTWSC-NH2 (linker 1-10 via mXylylene) [3BP-3858] are greater than 8 pkd and no more than 2 min. {DOTA-APAc″}-VYCE[dP]D[Aph(2Thz)]LTWSC-NH2 (linker 3-12 via mXylylene) [3BP-4180] came in with a pIC50 in assay [5] of 6.1 to 7 pic50.

Turning to {DOTA-APAc″}-VYCE[dP]D[Aph(Bz)]LTWSC-NH2 (linker 3-12 via mXylylene) [3BP-4171], in assay [5], the pIC50 was 6.1 to 7 pic50.

B2: 3BP-3899 (peptide)
peptide: Ac-VYCE[dP]DWLKWSC-NH2
modifications: linker 3-12 via mXylylene; lactam 4-9
SMILES: CC(=O)N[C@H](C(=O)N[C@@H](Cc1ccc(O)cc1)C(=O)N[C@H]1CSCc2cccc(c2)CSC[C@@H](C(N)=O)NC(=O)[C@H](CO)NC(=O)[C@H](Cc2c[nH]c3ccccc23)NC(=O)[C@@H]2CCCCNC(=O)CC[C@H](NC1=O)C(=O)N1CCC[C@@H]1C(=O)N[C@@H](CC(=O)O)C(=O)N[C@@H](Cc1c[nH]c3ccccc13)C(=O)N[C@@H](CC(C)C)C(=O)N2)C(C)C
On to B2, for which, in assay [5], the pIC50 is 6.1 to 7 pic50.

B3: 3BP-4043 (peptide)
peptide: Ac-VYCE[dP]KWL[dD]WSC-NH2
modifications: linker 3-12 via mXylylene; lactam 6-9
SMILES: CC(=O)N[C@H](C(=O)N[C@@H](Cc1ccc(O)cc1)C(=O)N[C@H]1CSCc2cccc(c2)CSC[C@@H](C(N)=O)NC(=O)[C@H](CO)NC(=O)[C@H](Cc2c[nH]c3ccccc23)NC(=O)[C@H]2CC(=O)NCCCC[C@H](NC(=O)[C@H]3CCCN3C(=O)[C@H](CCC(=O)O)NC1=O)C(=O)N[C@@H](Cc1c[nH]c3ccccc13)C(=O)N[C@@H](CC(C)C)C(=O)N2)C(C)C
On to B3, for which, in assay [5], the pIC50 fell in the range of 6.1 to 7 pic50.

In turn, {DOTA-Ttds}-VYCEGDWLTWQC-NH2 (linker 3-12 via mXylylene) [3BP-2959] gave a pKD in assay [1] greater than 8 pkd. Further, the “t1/2 (half-life of the complex, SPR)” value in assay [4] was no more than 2 min. With {DOTA-PPAc″}-YCE[dP]D[Phe(3-NHCO(CH2)3SO2NH2)][tBuAla]TWSC-NH2 (linker 2-11 via mXylylene; reading uncertain) [3BP-4449], in assay [3], the pIC50 was greater than 8 pic50.

B4: 3BP-4338 (peptide)
peptide: DCE[dP]DWLTW[Dap]C-NH2
modifications: lactam 1-10; linker 2-11 via mXylylene; not fully specified (N-terminus); also: indium complexed by DOTA
On to B4, for which the pKD in assay [1] was greater than 8 pkd. The “t1/2 (half-life of the complex, SPR)” value in assay [4] is no more than 2 min.

{DOTA-APAc″}-VYCE[dP]DWLTWSC-NH2 (linker 3-12 via Pyridine(3,5-bisCH2)) [3BP-4141] showed a pIC50 in assay [5] of 6.1 to 7 pic50. In assay [5], {DOTA-APAc″}-VYCE[dP]D[Aph(iNic)]LTWSC-NH2 (linker 3-12 via mXylylene) [3BP-4183] yielded a pIC50 of 6.1 to 7 pic50.

B5: 3BP-4260 (peptide)
peptide: {DOTA-3Amb}-DCE[dP]DWLTW[Dap]C-NH2
modifications: lactam 10-1; linker 2-11 via mXylylene
SMILES: CC(C)C[C@@H]1NC(=O)[C@H](Cc2c[nH]c3ccccc23)NC(=O)[C@H](CC(=O)O)NC(=O)[C@H]2CCCN2C(=O)[C@H](CCC(=O)O)NC(=O)[C@@H]2CSCc3cccc(c3)CSC[C@@H](C(N)=O)NC(=O)[C@H](CNC(=O)C[C@H](NC(=O)c3cccc(CNC(=O)CN4CCN(CC(=O)O)CCN(CC(=O)O)CCN(CC(=O)O)CC4)c3)C(=O)N2)NC(=O)[C@H](Cc2c[nH]c3ccccc23)NC(=O)[C@H]([C@@H](C)O)NC1=O
On to B5, for which the pKD in assay [1] was greater than 8 pkd. Also, in assay [4], the “t1/2 (half-life of the complex, SPR)” value was no more than 2 min.

Molecule {DOTA-PPAc}-ECE[dP]D[Aph(SaPr)]LTW[Dap]C-NH2 (lactam 1-10; linker 2-11 via mXylylene) [3BP-4504] gave a pKD in assay [1] greater than 8 pkd. The “t1/2 (half-life of the complex, SPR)” value in assay [2] was greater than 15 min. In addition, the pIC50 in assay [3] is greater than 8 pic50.

B6: 3BP-4505 (peptide)
peptide: {DOTA}-ECE[dP]D[Aph(SaPr)]LTW[Dap]C-NH2
modifications: lactam 1-10; linker 2-11 via mXylylene
SMILES: CC(C)C[C@@H]1NC(=O)[C@H](Cc2ccc(NC(=O)CCS(N)(=O)=O)cc2)NC(=O)[C@H](CC(=O)O)NC(=O)[C@H]2CCCN2C(=O)[C@H](CCC(=O)O)NC(=O)[C@@H]2CSCc3cccc(c3)CSC[C@@H](C(N)=O)NC(=O)[C@H](CNC(=O)CC[C@H](NC(=O)CN3CCN(CC(=O)O)CCN(CC(=O)O)CCN(CC(=O)O)CC3)C(=O)N2)NC(=O)[C@H](Cc2c[nH]c3ccccc23)NC(=O)[C@H]([C@@H](C)O)NC1=O
In assay [1], B6 showed a pKD greater than 8 pkd. Besides, the “t1/2 (half-life of the complex, SPR)” value in assay [2] is greater than 15 min. The same molecule displayed a pIC50 in assay [3] greater than 8 pic50.

B7: 3BP-4050 (peptide)
peptide: Ac-VYCE[dP][Dab]WLDWSC-NH2
modifications: linker 3-12 via mXylylene; lactam 6-9
SMILES: CC(=O)N[C@H](C(=O)N[C@@H](Cc1ccc(O)cc1)C(=O)N[C@H]1CSCc2cccc(c2)CSC[C@@H](C(N)=O)NC(=O)[C@H](CO)NC(=O)[C@H](Cc2c[nH]c3ccccc23)NC(=O)[C@@H]2CC(=O)NCC[C@H](NC(=O)[C@H]3CCCN3C(=O)[C@H](CCC(=O)O)NC1=O)C(=O)N[C@@H](Cc1c[nH]c3ccccc13)C(=O)N[C@@H](CC(C)C)C(=O)N2)C(C)C
As for B7, the pIC50 in assay [5] was 6.1 to 7 pic50.
